Reference: US20220403044A1 (ACADEMIA SINICA, published 2022)
One block for each binder: values may come before it.

Columns and labels:
EGFR-Flag [1] = target: T1, EGFR-Flag (UniProt P00533 25-1210, limits assumed); assay: co-IP from HEK293T cells overexpressing EpCAM-V5 and EGFR-Flag (FIG. 1C)
T1 construct: whole, on cells; also called exogenous EGFR; not shown: Flag tag
Experimental: (§1) FIGS. 1A to 1H. EpEX binds to EGFR through its EGF-like domain I. (FIG. 1A) Immunoprecipitation (IP) of affinity cross-linked EpEX-Fc bound to EGFR from HCT116 cells. (FIG. 1B) EpEX-Fc was added to EGFRECD-coated ELISA plates and detected by TMB colorimetric peroxidase assay. (FIG. 1C) 293T cells were transfected with EGFR-Flag and EpCAM-V5. IP was performed with anti-V5 antibody (left panel) or anti-Flag antibody (right panel) followed by Western blotting. (FIG. 1D) 293T cells were transfected with EGFR-Flag and EGF domain-deleted mutant EpCAM-V5. The protein interaction was probed by IP with anti-V5 antibody and Western blotting with anti-Flag antibody. (FIG. 1E) In culture media from 293T cells with EGFRECD-Flag and EpEX-Fc transfection, IP was performed with Dynabeads® Protein G and detected by Western blotting with anti-Flag antibody. (FIG. 1F) 293T cells were transiently transfected with EGFRECD-Flag and EGF domain-deleted mutant EpEX-Fc. […] (FIG. 1G) Purified EGFRECD-6×His and EGF domain-deleted mutant EpEX-Fc were incubated and IP was performed with Dynabeads® Protein G and detected by Western blotting. (FIG. 1H) HCT116 cells were starved and treated with wild-type or EGF domain-deleted mutant EpEX, and EGFR signaling was analyzed by Western blotting. […]

EGFR-Flag [2] = target: T1, EGFR-Flag; assay: co-IP with anti-V5, Western blot with anti-Flag, transfected 293T cells (FIG. 1D)
Experimental: as §1

binding result (EGFR-Flag [1]): binds
B1: EpCAM-V5 (other, UniProt P16422 24-314, looked up)
chain: QEECVCENYKLAVNCFVNNNRQCQCTSVGAQNTVICSKLAAKCLVMKAEMNGSKLGRRAKPEGALQNNDGLYDPDCDESGLFKAKQCNGTSMCWCVNTAGVRRTDKDTEITCSERVRTYWIIIELKHKAREKPYDSKSLRTALQKEITTRYQLDPKFITSILYENNVITIDLVQNSSQKTQNDVDIADVAYYFEKDVKGESLFHSKKMDLTVNGEQLDLDPGQTLIYYVDEKAPEFSMQGLKAGVIAVIVVVVIAVVAGIVVLVISRKKRMAKYEKAEIKEMGEMHRELNA
notes: whole, on cells; also called exogenous EpCAM; not shown: V5 tag

binding result (EGFR-Flag [2]): binds
B2: EGF-like domain II-deleted EpCAM mutant (EpCAMΔEGFII), V5-tagged (other, UniProt P16422 24-314, looked up)
chain: QEECVCENYKLAVNCFVNNNRQCQCTSVGAQNTVICSKLAAKSERVRTYWIIIELKHKAREKPYDSKSLRTALQKEITTRYQLDPKFITSILYENNVITIDLVQNSSQKTQNDVDIADVAYYFEKDVKGESLFHSKKMDLTVNGEQLDLDPGQTLIYYVDEKAPEFSMQGLKAGVIAVIVVVVIAVVAGIVVLVISRKKRMAKYEKAEIKEMGEMHRELNA
notes: whole, on cells; also called EGF domain-deleted mutant EpCAM-V5; not shown: V5 tag
